In publication PMC3835790, “Statistical Experimental Design Guided Optimization of a One-Pot Biphasic Multienzyme Total Synthesis of Amorpha-4,11-diene” (PLoS ONE, 2013) one finds Km and kcat data, which are given here for 3 proteins.

Conditions in all cases: 100 mM Tris/HCl pH 7.4, 30°C
Substrate in series [1]: C[C@@](O)(CCOP(=O)(O)OP(=O)(O)O)CC(=O)O
Kind of series: initial rates, UPLC-(TOF)MS, double-reciprocal plot. Type of series: biochemical, Saccharomyces cerevisiae. The text has this:
initial rates, UPLC-(TOF)MS, double-reciprocal plot on diphosphomevalonate decarboxylase (Erg19)

Substrate in the series “purified protein”: CC(O)(CCO)CC(=O)O
Put plainly: purified protein.

Substrate in series [2]: C[C@@](O)(CCOP(=O)(O)O)CC(=O)O
Kind of series: initial rates, UPLC-(TOF)MS, double-reciprocal plot. It counts as biochemical, Saccharomyces cerevisiae. The text has this: initial rates, UPLC-(TOF)MS, double-reciprocal plot on phosphomevalonate kinase (Erg8)

B1: diphosphomevalonate decarboxylase (Erg19) (Saccharomyces cerevisiae S288C) (protein)
chain: MTVYTASVTAPVNIATLKYWGKRDTKLNLPTNSSISVTLSQDDLRTLTSAATAPEFERDTLWLNGEPHSIDNERTQNCLRDLRQLRKEMESKDASLPTLSQWKLHIVSENNFPTAAGLASSAAGFAALVSAIAKLYQLPQSTSEISRIARKGSGSACRSLFGGYVAWEMGKAEDGHDSMAVQIADSSDWPQMKACVLVVSDIKKDVSSTQGMQLTVATSELFKERIEHVVPKRFEVMRKAIVEKDFATFAKETMMDSNSFHATCLDSFPPIFYMNDTSKRIISWCHTINQFYGETIVAYTFDAGPNAVLYYLAENESKLFAFIYKLFGSVPGWDKKFTTEQLEAFNHQFESSNFTARELDLELQKDVARVILTQVGSGPQETNESLIDAKTGLPKE
notes: 6xHis-tagged, modified pET-11a, expressed in E. coli, Ni-NTA purified; calculated mass 45181
As a reminder, the Km is the concentration of substrate that gives half-maximal velocity. What is called kcat is the maximal rate divided by the concentration of active sites. For B1, in series [1], the Km was determined as 190 ± 52 µM and the catalytic constant (kcat) came out at 2.8 ± 0.5 s⁻¹.

B2: mevalonate kinase (Erg12) (Saccharomyces cerevisiae S288C) (protein)
chain: MSLPFLTSAPGKVIIFGEHSAVYNKPAVAASVSALRTYLLISESSAPDTIELDFPDISFNHKWSINDFNAITEDQVNSQKLAKAQQATDGLSQELVSLLDPLLAQLSESFHYHAAFCFLYMFVCLCPHAKNIKFSLKSTLPIGAGLGSSASISVSLALAMAYLGGLIGSNDLEKLSENDKHIVNQWAFIGEKCIHGTPSGIDNAVATYGNALLFEKDSHNGTINTNNFKFLDDFPAIPMILTYTRIPRSTKDLVARVRVLVTEKFPEVMKPILDAMGECALQGLEIMTKLSKCKGTDDEAVETNNELYEQLLELIRINHGLLVSIGVSHPGLELIKNLSDDLRIGSTKLTGAGGGGCSLTLLRRDITQEQIDSFKKKLQDDFSYETFETDLGGTGCCLLSAKNLNKDLKIKSLVFQLFENKTTTKQQIDDLLLPGNTNLPWTS
Turning to B2, in “purified protein”, the Km stood at 460 ± 153 µM and the kcat stood at 5.5 s⁻¹.

B3: phosphomevalonate kinase (Erg8) (Saccharomyces cerevisiae S288C) (protein)
chain: MSELRAFSAPGKALLAGGYLVLDTKYEAFVVGLSARMHAVAHPYGSLQGSDKFEVRVKSKQFKDGEWLYHISPKSGFIPVSIGGSKNPFIEKVIANVFSYFKPNMDDYCNRNLFVIDIFSDDAYHSQEDSVTEHRGNRRLSFHSHRIEEVPKTGLGSSAGLVTVLTTALASFFVSDLENNVDKYREVIHNLAQVAHCQAQGKIGSGFDVAAAAYGSIRYRRFPPALISNLPDIGSATYGSKLAHLVDEEDWNITIKSNHLPSGLTLWMGDIKNGSETVKLVQKVKNWYDSHMPESLKIYTELDHANSRFMDGLSKLDRLHETHDDYSDQIFESLERNDCTCQKYPEITEVRDAVATIRRSFRKITKESGADIEPPVQTSLLDDCQTLKGVLTCLIPGAGGYDAIAVITKQDVDLRAQTANDKRFSKVQWLDVTQADWGVRKEKDPETYLDK
notes: 6xHis-tagged, modified pET-11a, expressed in E. coli, Ni-NTA purified; calculated mass 51520
Take B3: in series [2], the Michaelis constant (Km) was determined as 780 ± 280 µM and the kcat turned out to be 22 ± 7 s⁻¹.
